Measurements reported in patent US20110294873A1, “Gene Transfer Vectors Comprising At Least One Isolated DNA Molecule Having Insulator Or Boundary Properties And Methods To Identify The Same” (UNIVERSITÉ DE LAUSANNE, priority 2008, published 2011).

Tested on: HeLa cells
Assay: Barrier assay: SV40 promoter/GFP transgene flanked by elements, stable transfection, FACS
Assay type: cell-based, human
Text: Nevertheless, whether it may also function as a barrier element upon transgene integration at internal chromosomal loci has not been assessed. The CTF/NFI adeno. (5 bp spacing) or CTCF binding sites were sub-cloned on each side of a SV40 promoter/GFP gene cassette, to address the potential barrier properties of these sequences at random chromosomal locations (FIG. 29A). A multiple cloning site spacer element was cloned in place of the insulators in the negative control plasmid, while the 1-68 matrix attachment region (MAR) element that potently abrogates silencing effects was used as positive control (Girod et al., 2007).
These constructs were stably transfected in HeLa cells, and the GFP fluorescence profile was assessed for each construct on the polyclonal cell population. The distribution of the cell fluorescence in the populations varied from one construct to another but nevertheless yielded reproducible patterns of cells displaying distinct levels of GFP expression. The fluorescence profiles were used to define 3 sub-populations of GFP-positive cells termed M1, M2 and M3, which designate low, medium, and high GFP expression ranges (FIG. 29B). Cells whose fluorescence profile overlapped with the profile of non-transfected cells were considered as non-expressing cells.
(A) Schematic representation of the insulated GFP transgene. GFP expression was driven by a SV40 promoter and the effect of elements inserted on both sides of the transgene was evaluated in stable transfections of HeLa cells.
(B) Results of representative FACS analysis for GFP expression of HeLa cell populations stably transfected with constructs described in panel A (16 days after transfection). The GFP transgene was flanked by either a multiple cloning site (MCS), or 7 binding sites for CTF/NFI (Adeno., 5 bp spacing), or one copy of the 1-68 MAR element. The profile of non-transfected cells is depicted in grey. […]

[1] = HeLa stable, relative to GFP-positive cells

B1: Ins2: 7 direct repeats of the CTF/NF1 binding site from adenovirus type II origin of replication, 5 bp spacing (nucleic acid)
DNA: ATCGATAAGCTTGCATTGGCAACGTGCCATAAGCATTGGCAACGTGCCATAAGCATTGGCAACGTGCCATAAGCATTGGCAACGTGCCATAAGCATTGGCAACGTGCCATAAGCATTGGCAACGTGCCATAAGCATTGGCAACGTGCCATAAGCGGGGGGATCC
modifications: 7xCTF/NF1 from adenovirus type II
- cells in M1 sub-population (low GFP) [1]: one third
- cells in M3 sub-population (high GFP) [1]: ~10%
- GFP transgene expression over time (anti-silencing effect) (stably transfected polyclonal HeLa pools, up to one month): stable and can withstand cell division
